The data set has as its target T1, SERBP1 189-400 (Homo sapiens, UniProt Q8NC51 189-400).
T1 sequence: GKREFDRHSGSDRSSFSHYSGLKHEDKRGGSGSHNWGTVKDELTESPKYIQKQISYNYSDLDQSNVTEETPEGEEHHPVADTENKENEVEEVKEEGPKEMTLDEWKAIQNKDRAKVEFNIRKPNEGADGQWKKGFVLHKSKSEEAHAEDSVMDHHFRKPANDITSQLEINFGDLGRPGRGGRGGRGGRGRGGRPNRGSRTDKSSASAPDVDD
As to the kind of experiment: NMR 1H,15N-HSQC titration; RNA:protein 2:5 to 8:5; CSPs from C-terminal RGG box to C-terminus (N383, T388, S394, A395, V398), RGG glycine broadening; 20 mM sodium phosphate pH 6.9, 60 mM NaCl, 1 mM PMSF, 0.2 mM EDTA, 10% D2O, 4 °C; 50 µM protein. To be noted: protein: recombinant; tags: N-terminal 8xHis removed by TEV (vector-derived residues may remain).

In the case of GCGCGGG (ssRNA) [7-mer G-rich RNA (G-quartet ligand)], the binding result was “binds”.
